According to the supplement of paper PMC10567573:

B1: MLL5 (parent)
chain: DCMGIDRQHIPDTYLCERCQPRNL

Variants of: B1
Test: protein stability index of a GFP-peptide fusion (GPS, HEK-293T) (PSI 1-6); higher = more stable
Conditions: c terminus: a fixed tail appended
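Note: lentivirally expressed fusions sorted by FACS into six bins by GFP to DsRed ratio, PSI derived from sequencing read proportions per bin multiplied by bin number.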

Variant	protein stability index
Q20F	2.37
Q20W	2.27
Q20C	2.69
Q20N	3.33
Q20S	3.03
Q20D	4.22
Q20M	3.26
Q20K	2.68
Q20H	2.8
Q20G	2.79
Q20Y	2.94
Q20A	2.81
Q20I	2.55
Q20L	1.99
Q20V	2.79
Q20P	3.24
Q20E	3.21
Q20T	3.53
E17I	1.94
E17K	2.6
E17N	3.35
E17Q	3.04
E17G	2.39
E17T	3.07

Variant	protein stability index
E17L	2.96
E17D	3.21
E17H	2.68
E17P	2.96
E17W	2.02
E17S	2.64
E17F	2.25
E17A	2.89
E17C	2.32
E17Y	2.5
E17R	2.47
E17V	1.71
E17M	2.28
C19M	1.98
C19H	3.7
C19K	3.67
C19I	3.02
C19D	4.73
C19W	2.63
C19G	3.63
C19L	3.43
C19E	4.12
C19T	4.09
C19Q	3.88

Variant	protein stability index
C19A	4.26
C19R	4.24
C19Y	2.8
C19P	4.55
C19S	3.85
C19V	2.65
C19F	3.14
C19N	4.06
P21C	3.21
P21Y	2.88
P21V	2.48
P21L	3.61
P21A	3.58
P21I	2.5
P21T	2.95
P21D	4.21
P21S	2.93
P21E	4
P21F	2.49
P21N	3.21
P21H	2.76
P21R	3.4
P21K	3.53
P21G	3.45

Variant	protein stability index
P21M	3.62
P21Q	3.93
P21W	1.7
L15W	2.81
L15N	3.8
L15K	4
L15Y	2.28
L15I	3.61
L15T	3.73
L15V	3.28
L15S	3.76
L15Q	2.99
L15M	2.95
L15R	3.61
L15P	3.15
N23L	2.5
N23H	2.36
N23M	2.83
N23G	3
N23W	2.49
N23P	3.1
N23V	2
N23C	1.85
N23F	2.58

Variant	protein stability index
N23Y	1.94
N23S	3.07
N23T	2.61
N23E	2.86
N23I	2.29
N23A	2.09
N23D	3.08
N23R	1.53
N23K	2.73
N23Q	2.62
R18T	3.15
R18Y	2.23
R18K	2.63
R18N	3.58
R18H	3.18
R18L	2.84
R18G	3.6
R18V	2.19
R18D	3.81
R18C	2.89
R18S	3.12
R18W	2.25
R18F	2.87
R18M	2.74

Variant	protein stability index
R18P	3.15
R18A	2.57
R18E	3.15
R18I	2.9
R18Q	3.01
C16G	4.23
C16R	3.67
C16H	3.58
C16N	3.7
C16L	3.36
C16D	3.91
C16V	3.21
C16A	3.56
C16F	3.13
C16P	3.73
C16Y	2.88
C16E	3.65
C16M	3.7
C16W	2.9
C16T	3.41
C16S	3.52
C16K	3.41
C16I	3.44
C16Q	3.79

Variant	protein stability index
R22A	3.57
R22H	2.72
R22S	3.31
R22N	2.94
R22K	3.19
R22E	3.98
R22T	3.34
R22P	3.34
R22L	3.31
R22V	2.67
R22I	2.9
R22F	2.35
R22Q	3.19
R22W	1.99
R22G	3.28
R22D	3.42
R22M	1.86
R22Y	2.49
R22C	3.66
L24C	3.24
L24A	3.55
L24D	3.88
L24E	3.44
